Test results taken from patent US20240352105A1, “COMPOSITIONS AND METHODS FOR NEUTRALIZING ANTIGENS” (PACAGEN, INC, priority 2023, published 2024).

Key:
[1] = target: T1, recombinant His-tagged Der p1 (dust mite, UniProt P08176 99-320, limits assumed); assay: ELISA, Der p1-His 2 µg/mL, repeat 1
T1 sequence (looked up): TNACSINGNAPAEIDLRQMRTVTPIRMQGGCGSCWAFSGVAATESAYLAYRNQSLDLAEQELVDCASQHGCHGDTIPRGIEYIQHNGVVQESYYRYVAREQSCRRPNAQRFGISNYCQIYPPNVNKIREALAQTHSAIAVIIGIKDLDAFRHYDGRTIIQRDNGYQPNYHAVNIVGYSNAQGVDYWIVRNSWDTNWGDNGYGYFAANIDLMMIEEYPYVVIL

[2] = target: T1, recombinant His-tagged Der p1; assay: ELISA, Der p1-His 2 µg/mL, repeat 2
[3] = target: T1, recombinant His-tagged Der p1; assay: ELISA, Der p1-His 10 µg/mL, repeat 1
[4] = target: T1, recombinant His-tagged Der p1; assay: ELISA, Der p1-His 10 µg/mL, repeat 2
[5] = target: T1, recombinant His-tagged Der p1; assay: ELISA, Der p1-His 0.4 µg/mL, repeat 1
[6] = target: T1, recombinant His-tagged Der p1; assay: ELISA, Der p1-His 0.4 µg/mL, repeat 2
[7] = target: T1, recombinant His-tagged Der p1; assay: ELISA, Der p1-His 0.08 µg/mL, repeat 1
[8] = target: T1, recombinant His-tagged Der p1; assay: ELISA, Der p1-His 0.08 µg/mL, repeat 2
[9] = target: T1, recombinant His-tagged Der p1; assay: ELISA, Der p1-His 0.016 µg/mL, repeat 1
[10] = target: T1, recombinant His-tagged Der p1; assay: ELISA, Der p1-His 0.016 µg/mL, repeat 2
[11] = target: T1, recombinant His-tagged Der p1; assay: ELISA, Der p1-His 0.0032 µg/mL, repeat 1
[12] = target: T1, recombinant His-tagged Der p1; assay: ELISA, Der p1-His 0.0032 µg/mL, repeat 2
[13] = target: T1, recombinant His-tagged Der p1; assay: ELISA, Der p1-His 0.00064 µg/mL, repeat 1
[14] = target: T1, recombinant His-tagged Der p1; assay: ELISA, Der p1-His 0.00064 µg/mL, repeat 2
[15] = target: T2, Fel D1 epitope peptide SDAB22110-115-28AA-2 (cat); assay: ELISA on Fel D1 epitope peptide; the row names two epitopes (SEQ ID NO: 61 and 58) and one EC50
T2 peptide: ENARILKNCVDAKM
Protocol: (§1) 2 microgram per milliliter (μg/mL) target antigen is coated in a 96-well plate and ELISA assay is performed after incubation with candidate VHHs. The binding EC50 of each clone is calculated using Prism GraphPad. The positive control antibody is involved as an internal control.
(§2) Isolated VHH clones were further validated by performing an ELISA assay as described in Example 1. Binding results are shown in FIG. 15B-15D for the epitope of SEQ ID NO: 61. Binding results are shown in FIG. 16 for the epitope of SEQ ID NO: 59. Binding results are shown in FIG. 17A-17E for the epitope of SEQ ID NO: 60. Binding results are shown in FIG. 18 for the epitope of SEQ ID NO: 58.

[16] = target: Fel D1; assay: ELISA binding assay of anti-Fel d1 VHH clones on Fel D1 epitopes; set-up: species or system cat
Protocol: as §1
Four distinct epitopes of Fel D1 were selected to be used for further identification. Peptides were synthesized for the four epitopes for VHH identification.
as §2

[17] = Thermostability (Tm, Tonset, Tagg) by Nanotemper DSF; type: physicochemical; set-up: key to Tm2 / Tagg / Tm1 / Tm / Tm3 / Tonset / Tonset ø (mean) / Tagg ø (mean): temperatures in °C; conditions: for Tm: single melting point
Procedure, shortened: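 Isolated VHH clones were heated from 20 °C to 95 °C at 1 °C/min using DSF. Tm, Tonset and Tagg were derived from the thermal curves. Where several melting transitions occurred, each was reported in order (Tm1, Tm2, etc.).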

[18] = target: T3, Fel D1 (Felis catus, UniProt P30438+P30440); assay: Size Exclusion Chromatography test of Fel D1 neutralization (tetramer formation); set-up: species or system cat; conditions: 30 ug Fel D1 and 30 ug 1-C3 pre-incubated at 37° C. for 4 hours
T3 sequence (P30438 23-92): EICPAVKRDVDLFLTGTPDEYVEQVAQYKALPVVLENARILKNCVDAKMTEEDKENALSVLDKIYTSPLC
T3 sequence (P30440 18-109): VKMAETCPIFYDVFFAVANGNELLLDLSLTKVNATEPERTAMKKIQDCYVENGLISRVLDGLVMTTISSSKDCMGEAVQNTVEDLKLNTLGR
Protocol: Functional validation was also performed testing the capability of an exemplary clone to neutralize Fel D1. Fel D1 is naturally a weaker tetramer that causes allergic reactions by causing cross-linking of neighboring IgEs on immune cells (mast cells, etc.). […] On the SEC, there are two distinct peaks for pure Fel D1, the earlier peak representing the tetramer and the laker peak representing the monomer (FIG. 20A). Conditions for this SEC graph are (Column: Zenix-C SEC-80, 7.8×300 mm, 3 um, 80 Å; Sample: Fel D1; Sample Volume: 30 μL (25 ug); Mobile phase: 150 mM phosphate buffer, pH 7.0; Flow rate: 0.7 mL/min; Detection: UV 280 nm; System: Thermo Vanquish Flex.
Conditions for this SEC graph are (Column: Zenix-C SEC-80, 7.8×300 mm, 3 um, 80 Å; Sample: 1-C3; Sample Volume: 30 μL; Mobile phase: 150 mM phosphate buffer, pH 7.0; Flow rate: 0.7 mL/min; Detection: UV 280 nm; System: Thermo Vanquish Flex.
When clone C3 and Fel D1 are incubated together for 4 hours at 37° C. and then assayed, the two Fel D1 peaks were no longer detected and only the C3-Fel D1 complex is detected. […]

[19] = anti-Fel d1 VHH, in °C (unit assumed)
[20] = Average of two replicates, anti-Fel d1 VHH
[21] = Average of two replicates, anti-Fel d1 VHH, in °C (unit assumed)
[22] = Replicate 1, in °C (unit assumed)
[23] = Replicate 2, in °C (unit assumed)

In the case of known Der p1 antibody (clone 10B9), the OD at 450 nm [1] is reported as 4.03 OD, the OD at 450 nm [2] is reported as 4.31 OD and the OD at 450 nm [3] is reported as 4.37 OD. The OD at 450 nm [4] was 4.4 OD, the OD at 450 nm [5] was 1.8 OD and the OD at 450 nm [6] was 1.87 OD. For the same molecule, the OD at 450 nm [7] was 0.58 OD, the OD at 450 nm [8] was 0.49 OD and the OD at 450 nm [9] was 0.2 OD. For the same molecule, the OD at 450 nm [10] was 0.17 OD, the OD at 450 nm [11] was 0.25 OD and the OD at 450 nm [12] was 0.12 OD. It also gave an OD at 450 nm [13] of 0.13 OD and an OD at 450 nm [14] of 0.12 OD.

B1: SDAB22110-1-1-C3 (VHH)
VHH: QLQLVESGGGLVQPGGSLRLSCEASGFTFKYYTMSWYRQAPGKERELVATITNGDRTNYADSVKGRFTISRDNAKNTLYLQMNSLKPYDTAVYYCNRHLPLLQIWGQGTQVTVSS
notes: Expressed from a prokaryotic vector
Molecule B1 has an EC50 [15] of 0.352 µg/mL.

B2: SDAB22110-1-1-C3: anti-Fel d1 VHH clone, SEQ ID NO: 49 (protein)
VHH: AVQLVESGGGLVQPGGSLRLSCAASGFTFTNYAMRWYRQAPGKERELVAAIPTSGGYTYTADSVKGRFTISRDNAKNTVYLQMNSLKPEDTAVYYCYGLRTLSDYYWGQGTQVTVSS
In the case of B2, the EC50 ([16]; Epitope Recognized ENARILKNCVDAKM (SEQ ID NO: 61), VAQYKALPVVLENA (SEQ ID NO: 58)) is reported as 0.352 µg/mL, the Tagg ([17]; anti-Fel d1 VHH) is reported as 58.93 and the Tm [17, 19] is reported as 66.50. The “Fel D1 tetramer formation (SEC)” value [18] was “preventing the Fel D1 tetramer from forming”.

B3: SDAB22110-3-1-D9-1: anti-Fel d1 VHH clone, SEQ ID NO: 52 (protein)
VHH: AVQLVESGGGLVQPGGSLRLSCIISGFTSVSYSIVWFRQAPGKGREGVSCIGSSGGSTDYIDSVKGRFTISRDSAKNTVYLQMDCLKPEDTAVYYCAALRDVYRLCVIDYMNNDYWGQGTQVTVSS
With B3 the EC50 ([16]; Epitope Recognized FAVANGNELLLDLS (SEQ ID NO: 59)) was 12.940 µg/mL, the “Tagg ø (mean)” value [17, 20] was 42.78 and the “Tonset ø (mean)” value [17, 20] was 32.74. The “Tm ø (mean), first melting point (Tm1)” value [17, 21] was 41.13, the “Tm ø (mean), second melting point (Tm2)” value [17, 21] was 52.88 and the Tagg ([17]; Replicate 1) was 42.76. For the same molecule, the Tonset ([17]; Replicate 1) was 32.57, the “Tm, first melting point (Tm1)” value [17, 22] was 41.01 and the “Tm, second melting point (Tm2)” value [17, 22] was 52.86. The Tagg ([17]; Replicate 2) was 42.80, the Tonset ([17]; Replicate 2) was 32.90 and the “Tm, first melting point (Tm1)” value [17, 23] was 41.25. The “Tm, second melting point (Tm2)” value [17, 23] was 52.91, the Tagg ([17]; anti-Fel d1 VHH) was 42.30 and the Tm [17, 19] was 47.50.
